# How the values were obtained:
# [1] = molecular target: T1, Human Fibroblast Activation Protein (FAP) on HT1080 cells (human, UniProt Q12884 1-760); assay: flow cytometry, scFv-Fc on HT1080-FAP cells
# T1 construct: HT1080 cells transduced with human FAP cDNA; also called HT1080-FAP; FAP+ HT1080
# [2] = molecular target: T2, Murine Fibroblast Activation Protein (FAP) on B16 cells (mouse, UniProt P97321 1-761); assay: flow cytometry, scFv-Fc on B16-FAP cells
# T2 construct: B16 cells transduced with murine FAP cDNA; also called B16-FAP
# human FAP protein = human FAP protein (human, UniProt Q12884 26-760, limits assumed); assay: method not stated
# mouse FAP protein = molecular target: T3, mouse FAP protein (mouse, UniProt P97321 1-761); assay: method not stated
# T3 construct: also called murine FAP
# [3] = molecular target: T4, Human CD137 on Jurkat cells (human, UniProt Q07011 24-255); assay: flow cytometry, Jurkat cells;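 note: binding of antibody-containing supernatants to NF-kB-Luc2/4-1BB Jurkat cells, detected by flow cytometry with a PE-labelled anti-human IgG-Fc secondary antibody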
# T4 construct: whole, on cells; also called full-length human CD137-expressing Jurkat cell line; NF-kB-Luc2/4-1BB Jurkat
# T3 sequence (P97321 other isoform, or with tags, fused parts or gaps limits assumed, form in doubt): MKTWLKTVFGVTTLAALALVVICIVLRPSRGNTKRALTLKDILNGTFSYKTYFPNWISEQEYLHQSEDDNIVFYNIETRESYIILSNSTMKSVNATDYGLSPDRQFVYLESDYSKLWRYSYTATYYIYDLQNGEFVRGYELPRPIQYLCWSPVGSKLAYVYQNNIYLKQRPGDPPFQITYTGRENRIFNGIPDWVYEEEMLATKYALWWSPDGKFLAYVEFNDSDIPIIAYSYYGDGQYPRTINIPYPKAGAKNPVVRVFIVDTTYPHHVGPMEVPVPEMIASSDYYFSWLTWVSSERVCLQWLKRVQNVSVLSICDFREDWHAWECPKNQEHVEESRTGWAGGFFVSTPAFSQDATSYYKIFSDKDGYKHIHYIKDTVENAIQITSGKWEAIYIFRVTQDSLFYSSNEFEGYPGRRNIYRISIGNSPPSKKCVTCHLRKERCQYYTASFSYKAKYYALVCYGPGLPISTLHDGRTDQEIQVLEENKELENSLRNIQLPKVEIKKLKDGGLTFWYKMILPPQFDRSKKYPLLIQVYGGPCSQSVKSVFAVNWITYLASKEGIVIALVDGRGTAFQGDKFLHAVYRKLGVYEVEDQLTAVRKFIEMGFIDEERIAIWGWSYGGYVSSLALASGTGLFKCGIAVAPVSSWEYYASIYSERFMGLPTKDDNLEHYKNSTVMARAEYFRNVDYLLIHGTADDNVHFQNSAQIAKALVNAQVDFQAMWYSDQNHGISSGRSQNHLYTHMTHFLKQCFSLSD
# T2 sequence (P97321 other isoform, or with tags, fused parts or gaps): as the sequence (P97321 other isoform, or with tags, fused parts or gaps limits assumed, form in doubt) above
Binder,MFI [1] [MFI],MFI [2] [MFI],Kd (human FAP protein) [nM],Kd (mouse FAP protein) [nM],binding result [3]
"FAP.84.B8 (Fc fusion, Tested as scFv-Fc; orientation, linker and Fc of this construct not specified) VH: DVQLVESGGSVVRPGESLRLSCAASGFPFSSYPMTWVRQAPGEGLEWVSSIRGSGDRIHYADSVKGRFTISKDSSNNTLYLQMNSLRAEDTAVYYCATGWNFFDYWGLGTLVTVSS VL: EIVLTQSPGTLSLSPGERATLSCRASQTVATYLAWYQQKPGQAPRLLIYAAISRATGIPDRFSGSGSGTDFTLTITRLEPEDSAVYYCQQYKDWPPLTFGGGTKVEIK",24300,1490,,,
"FAP.63.D7 (Fc fusion, Tested as scFv-Fc; orientation, linker and Fc of this construct not specified) VH: DVQLVESGGGVVRPGESLRLSCAASGFTFSSYAMSWVRQTPGEGLEWVSFISSGGAYTHYTDSVKGRFTISRDNSKNTLYLQMNSLRAEDTAVYYCAKEKEIWNAFFDYWGLGTLVTVSS VL: EIVLTQSPATLNLSPGDRATLTCRASQTVGSKLAWYQQTSGQAPRLLIYDASSRATGIPDRFSGSGSGTEFTLTISSLEPEDFAVYVCQQYYDWPPLTFGGGTKVEIK",49100,3360,,,
"FAP.65.F1 (Fc fusion, Tested as scFv-Fc; orientation, linker and Fc of this construct not specified) VH: DVQLVESGGGLVHPGGSLRLSCAASTFTFANYIMSWVRQAPGKGLEWVSGITGSSTNTYYTDSVKGRFTISRDNSKNTLYLEMNSLRAEDTAVYYCAKHQLYPYYAMDVWGQGTTVTVSS VL: EIVLTQSPGSLSLSPGERATLSCRASQPIDSYLAWYQQKPGQAPRLLIYGASTRATDIPDRFSGSGSGTEFTLTISSLQSEDFAVYYCQQYYDWPPVTFGGGTKVEIK",35600,1840,,,
"FAP-A11 parental (scFv, the format in the KD assay is told only as 'SCFV'; also called FAP-A11SCFV(WT); FAP #1) scFv: EIVLTQSPGTLSLSPGERATLSCRASQPINNYLAWYQQKPGQAPRLLIFSASNRATGIPDRFSGSGSGTEFTLTISSLEPEDFAVYYCQQYYDWPPYTFGGGTKVEIKGGGGSGGGGSGGGGSGGGGSDVQLVESGGGLVQPGGSLRLSCAASGFSMSNFAMTWVRQAPGEGLEWVSGIRGSGTTYYADSVKGRFTVSRDNSKNTLYLQMNSLRAEDTAIYYCAKTWGTEYFDYWGLGTLVTVSS",,,1.04,< 0.02,
"FAP-A11 VK7-VH1 (FAP #3) (scFv, format in the KD assay not described; also called FAP-A11VK7VH1 (SS, NNN)) scFv: EIVLTQSPGTLSLSPGERATLSCRASQPISSYLAWYQQKPGQAPRLLIFSASNRATGIPDRFSGSGSGTEFTLTISSLEPEDFAVYYCQQYYDWPPYTFGGGTKVEIKGGGGSGGGGSGGGGSGGGGSDVQLVESGGGLVQPGGSLRLSCAASGFSMSNFAMTWVRQAPGEGLEWVSGIRGSGTTYYAESVKGRFTVSRDNSKNTLYLQMNSLRAEDTAIYYCAKTWGTEYFDYWGLGTLVTVSS",,,1.5,< 0.02,
"FAP-A11 VK3-VH1 (scFv, also called FAP-A11VK3VH1 (RS, NNN)) scFv: EIVLTQSPGTLSLSPGERATLSCRASQPIRSYLAWYQQKPGQAPRLLIFSASNRATGIPDRFSGSGSGTEFTLTISSLEPEDFAVYYCQQYYDWPPYTFGGGTKVEIKGGGGSGGGGSGGGGSGGGGSDVQLVESGGGLVQPGGSLRLSCAASGFSMSNFAMTWVRQAPGEGLEWVSGIRGSGTTYYAESVKGRFTVSRDNSKNTLYLQMNSLRAEDTAIYYCAKTWGTEYFDYWGLGTLVTVSS",,,0.199,< 0.02,
"FAP-A11 VK3-VH13 (FAP #2) (scFv, format in the KD assay not described; also called FAP-A11VK3VH13 (RS, QQQ); A11 VK3/VH3) scFv: EIVLTQSPGTLSLSPGERATLSCRASQPIRSYLAWYQQKPGQAPRLLIFSASNRATGIPDRFSGSGSGTEFTLTISSLEPEDFAVYYCQQYYDWPPYTFGGGTKVEIKGGGGSGGGGSGGGGSGGGGSDVQLVESGGGLVQPGGSLRLSCAASGFSMSNFAMTWVRQAPGEGLEWVSGIRGSGTTYYAESVKGRFTVSRDQSKQTLYLQMQSLRAEDTAIYYCAKTWGTEYFDYWGLGTLVTVSS",,,0.538,< 0.02,
"FAP-C3 parental (scFv, the format in the KD assay is told only as 'SCFV'; also called FAP-C3SCFVWT; FAP #4) scFv: EIVLTQSPGTLSLSPGERATLSCRASQSVGHYLAWYQQKPGQAPRLLIYDASNRAIDIPDRFSGSGSGTEFTLTISRLEPEDFAVYYCQQYYNNWPPLTFGGGTKVEIKGGGGSGGGGSGGGGSGGGGSDVQLVESGGGVVRPGESLTLSCAASGFTFSNYDMGWVRQAPGEGLEWVSGIRGRGGSTYYADSVKGRFTISRDSSKNTLYLQMNSLRAEDTAVYYCAKENNRHSFFEYWGLGTLVTVSS",,,0.036,33,
"FAP-C3 VK1-VH14 (FAP #5) (scFv, format in the KD assay not described; also called FAP-C3VK1VH14 (ND, SY, ES, ES, ER); FAP-C3-VK1-VH4) scFv: EIVLTQSPGTLSLSPGERATLSCRASQSVGHYLAWYQQKPGQAPRLLIYDASNRAIDIPDRFSGSGSGTEFTLTISRLEPEDFAVYYCQQYYNDWPPLTFGGGTKVEIKGGGGSGGGGSGGGGSGGGGSDVQLVESGGGVVRPGESLTLSCAASGFTFSSYDMGWVRQAPGEGLEWVSGIRGRGGSTYYAESVKGRFTISRESSKNTLYLQMNSLRAEDTAVYYCAKENERHSFFEYWGLGTLVTVSS",,,0.024,4.6,
"FAP.63.G3 (Fc fusion, Tested as scFv-Fc; orientation, linker and Fc not specified; also called FAP.63.C3; FAP 63.C3) VH: DVQLVESGGGVVRPGESLTLSCAASGFTFSNYDMGWVRQAPGEGLEWVSGIRGRGGSTYYADSVKGRFTISRDSSKNTLYLQMNSLRAEDTAVYYCAKENNRHSFFEYWGLGTLVTVSS VL: EIVLTQSPGTLSLSPGERATLSCRASQSVGHYLAWYQQKPGQAPRLLIYDASNRAIDIPDRFSGSGSGTEFTLTISRLEPEDFAVYYCQQYYNNWPPLTFGGGTKVEIK",72800,1410,,,
"FAP.63.H3 (Fc fusion, Tested as scFv-Fc; orientation, linker and Fc of this construct not specified) VH: not shown VL: EIVLTQSPGTLSLSPGERATLSCRASQSVGYYLAWYQQKPGQAPRLLIYDASDRATAIPDRFSGSGSGTEFTLTISRLEPEDFAVYYCQQYYNNWPPLTFGGGTKVEIK",75000,2830,,,

# More lines, now with the values ahead:
MFI [1] [MFI],MFI [2] [MFI],Kd (human FAP protein) [nM],Kd (mouse FAP protein) [nM],binding result [3],Binder
25400,1300,,,,"FAP.84.A9 (Fc fusion, Tested as scFv-Fc; orientation, linker and Fc of this construct not specified) VH: DVQLVESGGGVVRPGGSLRLSCAASGFPFSSYPMTWVRQAPGEGLEWVSSIRPIGDRIHYADSVKGRFTISRDSSNNTLYLQMNSLRAEDTAVYYCATGWNFFDYWGLGTLVTVSS VL: EIVLTQSPGTLSLSPGERATLTCRASQTVATYLAWYQQKPGQAPRLLIYAAISRATGIPDRFIGSGSGTDFTLTINRLEPEDFAVYYCQQYKDWPPLTFGGGTKVEIK"
24000,1610,,,,"FAP.84.B7 (Fc fusion, Tested as scFv-Fc; orientation, linker and Fc of this construct not specified) VH: DVQLVESGGGVVRPGESLRLSCAASGFIFRNYAMTWVRQAPGEGLEWVSTIRSSGSGRTDTYYADSVKGRFTISRDSSNNTLYLQMNSLRAEDTAVYYCAKSGTFWDTFFDYWGLGTLVTVSS VL: EIVLTQNPGTLNLSPGERATLTCRASQSAGRNLAWYQQKPGQTPRLLIYDVNTRATGIPDRFSGSGSGTEFNLTISSLQNEDFAVYYCQQYNNWPPLTFGGGTKVEIK"
27000,1430,,,,"FAP.84.C11 (Fc fusion, Tested as scFv-Fc; orientation, linker and Fc of this construct not specified) VH: not shown VL: EIVLTQSPGTLSLSPGERAILSCRASQTVGSRLAWYQQKPGQAPRLLIYAASSRATGIPDRFSGSGSGTEFTLTISSLQSEDFAVYYCQQYYDWPPLTFGGGTKVEIK"
27300,1410,,,,"FAP.84.A11 (Fc fusion, Tested as scFv-Fc; orientation, linker and Fc of this construct not specified) VH: DVQLVESGGGLVQPGGSLRLSCAASGFSMSNFAMTWVRQAPGEGLEWVSGIRGSGTTYYADSVKGRFTVSRDNSKNTLYLQMNSLRAEDTAIYYCAKTWGTEYFDYWGLGTLVTVSS VL: EIVLTQSPGTLSLSPGERATLSCRASQPINNYLAWYQQKPGQAPRLLIFSASNRATGIPDRFSGSGSGTEFTLTISSLEPEDFAVYYCQQYYDWPPYTFGGGTKVEIK"
,,,,binds,"CD137 #B27 (antibody, human IgG1, V domains shown, human IgG1 KO (L234A/L235A)/kappa chimeric IgG) VH: QVQLQQSGAELVRPGASVKISCKAFGYTFTNHHINWVKQRPGQGLDWIGYINPYNDYSGYNQKFKGRATLTVDKSSNTAYMELSSLTSEDSAVYYCATPGTWEGYYFDYWGQGTTLTVSS VL: DVVMTQTPLSLPVSLGDQASISCRSSQSLVHSNGNTYLEWYLQKPGQSPKVLIYMVSNRFSGVPDRFSGSGSGTDFTLKISRVEAEDLGVYYCFQGSHIPLTFGAGTKLELK"
17300,2260,,,,"FAP.84.B2 (Fc fusion, Tested as scFv-Fc; orientation, linker and Fc of this construct not specified) VH: DVQLVESGGGVVRPGESLRLSCAASGFSFSSYAMNWVRQAPGKGLEWVSAISGSGGGTFYADSVKGRFTISRDNSKNTLYLQMNSLRAEDTAIYYCAKDPFGYGFFDSWGLGTLVTVSS VL: EIVMTQSPATLSVSPGDRATLSCRASQTVGSKLAWYQQKPGQAPRLLIYAASSRATGIPDRFSGSGSGTDFTLTISSLEPEDFAVYYCQQYYNWPPAFGGGTKVEIK"
